# From patent publication US5783663A, “Peptide ligands for affinity purification of fibrinogen” (Bayer Corporation, priority 1998, dated 1998)
# Tests used:
# Ribonuclease S-protein = biological target: T1, Ribonuclease S-protein (Bos taurus, UniProt P61823); assay: Radiological screening of library spiked with YNFEVL-beads against 14C-S-protein, scintillation counting of isolated beads; assay type: binding
# T1 construct: Ribonuclease S-protein was purchased from Sigma (St. Louis, Mo.); purchased Sigma (St. Louis, Mo.)
# T1 sequence (P61823 47-150 limits assumed): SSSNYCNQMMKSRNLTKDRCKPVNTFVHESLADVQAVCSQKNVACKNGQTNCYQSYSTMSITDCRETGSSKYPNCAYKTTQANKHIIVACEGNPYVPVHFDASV
# Source text: Following the protocol of Jentoft et al. (21), aminated beads (resin modified with TOTDA-linker) and proteins were labeled using reductive ^14 C-methylation. The ^14 C-methylated beads are hereafter referred to as ^14 C-Test Beads. The ^14 C-labeled formaldehyde was obtained from Dupont-NEN (55 Ci/mole, Boston, Mass.). Ribonuclease S-protein was purchased from Sigma (St. Louis, Mo.); human fibrinogen, from Chromogenix AB (Molndal, Sweden). To separate ^14 C-labeled protein from non-incorporated ^14 C-formaldehyde, an Econopac 10DG Desalting Column (Biorad, Hercules, Calif.) was employed. The ^14 C-labeled proteins were stored in the labeling buffer, 0.1M sodium phosphate buffer (Fisher, Pittsburgh, Pa.), pH 7, at -18° C. Pure protein solutions were quantitated using A280, with extinction coefficients of 1.5 and 0.73 for fibrinogen and S-protein, respectively. The resulting protein concentrations were 30 μM for ^14 C-S-protein, and 4 μM for ^14 C-fibrinogen. Maximal labeling yield was calculated based on maximum of two ^14 C-labeled methyl groups per mole of amino groups.
# The number of disintegrations per minute, DPM, of radioactive samples was determined using a 1500 TriCarb Liquid Scintillation Analyzer from Packard (Meridan, Conn.) and CytoScint ES scintillation liquid from ICN (Casta Mesa, Calif.). Values of DPM are corrected for the background of the liquid scintillation counter (30-35 DPM) unless specified otherwise.
# Library beads, 20 mg in dry weight per experiment, were first mixed with 1 ml of blocking solution to block non-specific interactions between the peptides and ^14 C-protein. For screenings against S-protein, 2% bovine serum albumin (BSA, Sigma) in PBS containing 0.05% Tween (Sigma) was used as blocking solution. For screenings against fibrinogen, either 2% BSA in PBS with 0.05% Tween or Blocker™Casein (1%) in PBS (Pierce) was used. Each mixture of beads and blocking solution was incubated in a Cryotube (Nunc, Denmark) for 2 hours on a tube rotator.
# The blocked library beads were then exposed to target protein by pipetting the ^14 C-labeled protein directly into the mixture of beads and blocking solution. […] For fibrinogen experiments, 13 μl and 65 μl of the 4 μM ^14 C-fibrinogen solution was added, yielding final fibrinogen concentrations of 50 nM and 250 nM, respectively. The mixtures of beads, blocking solution, and protein solution were further rotated for 1.5 hours (S-protein experiment) and for 1 hour (fibrinogen experiment).
# After completion of blocking and binding, the beads were transferred to a Polyprep column (Biorad) and rinsed with PBS containing 0.05% Tween 20 (Sigma) until the column flow-through reached background DPM levels. The total rinsing volumes were 200 ml and 140 ml for S-protein and fibrinogen, respectively. […]
# S-protein = biological target: T2, S-protein (Bos taurus, UniProt P61823); details: reference (3); cited from earlier work
# T2 sequence (P61823 47-150 limits assumed): T1 sequence (P61823 47-150 limits assumed)
substance,measurement,setting,value
YNFEVL,"amount of protein bound per bead, average","Ribonuclease S-protein; 14C-S-protein 1 µM in PBS with 0.05% Tween 20, 2% BSA, average of isolated positive beads",133 fmol protein/bead
same,radioactivity of 14C-S-protein bound per bead,"Ribonuclease S-protein; 14C-S-protein 1 µM in PBS with 0.05% Tween 20, 2% BSA, background (33 DPM) subtracted",41-243 DPM/bead
same,amount of protein bound per bead,"Ribonuclease S-protein; 14C-S-protein 1 µM in PBS with 0.05% Tween 20, 2% BSA, range over isolated positive beads",49-289 fmol protein/bead
same,peptide to protein ratio (YNFEVL-peptide molecules to 1 S-protein molecule),Ribonuclease S-protein; from average 70 pmol peptide/bead and 133 fmol protein/bead,~500
same,association constant for binding S-protein,S-protein,10^4 -10^5 M^-1
